Source: article PMC9682730

How the values were obtained:
[1] = target: spastin (human (endogenous in HEK293)) (UniProt Q9UBP0); test: co-IP; reverse IP with spastin antibody from transfected cells, western blot with FLAG antibody; three independent experiments
[2] = target: FLAG-CHMP2B^Intron5 (UniProt Q9UQN3); test: co-IP; anti-FLAG M2 affinity gel IP from lysates of transfected HEK293 cells, overnight at 4 °C, washed with 50 mM Tris-HCl pH 7.4, 150 mM NaCl, FLAG elution; western blot with spastin antibody; four independent experiments, normalised to the abundance of CHMP2B^WT versus CHMP2B^Intron5

Row | fold of CHMP2B pulled down by spastin antibody against CHMP2B^WT [1] [times] | fold of spastin pulled down against CHMP2B^WT [2] [times] | Substance
1 | 3.3 | – | FLAG-CHMP2B^Intron5 (from UniProt Q9UQN3 1-213) (natural protein)
2 | – | 11 | spastin (from UniProt Q9UBP0 87-616) (natural protein)
